Reference: patent US10640563B2, “Anti-B7-H3 antibodies and antibody drug conjugates” (AbbVie Inc., priority 2016, dated 2020)

T1: soluble ECD of human B7-H3 (Homo sapiens, UniProt Q5ZPR3)
T1 construct: His tag (6xHis) (C); made in house
T1 sequence (Q5ZPR3 with tags, fused parts or gaps): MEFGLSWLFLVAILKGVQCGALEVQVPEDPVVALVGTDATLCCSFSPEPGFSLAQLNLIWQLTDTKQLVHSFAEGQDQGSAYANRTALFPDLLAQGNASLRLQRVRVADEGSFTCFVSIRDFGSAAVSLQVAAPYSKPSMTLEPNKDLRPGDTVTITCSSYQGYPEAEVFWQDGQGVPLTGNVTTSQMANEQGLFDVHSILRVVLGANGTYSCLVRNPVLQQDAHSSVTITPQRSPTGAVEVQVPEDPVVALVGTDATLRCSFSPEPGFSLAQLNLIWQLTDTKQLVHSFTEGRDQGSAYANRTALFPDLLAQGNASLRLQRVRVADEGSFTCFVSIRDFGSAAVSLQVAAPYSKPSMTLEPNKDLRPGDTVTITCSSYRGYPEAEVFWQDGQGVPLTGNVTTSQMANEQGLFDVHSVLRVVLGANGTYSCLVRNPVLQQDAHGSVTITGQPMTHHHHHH

B1: Ab10 (antibody, V domains shown)
VH: DVQLQESGPGLVKPSQSLSLTCTVTGYSITSDYAWNWIRQFPGNRLEWMGHINYSGITNYNPSLKSRISITRDTSKNQFFLQLYSVTTEDTATYFCARRSLFYYYGSSLYAMDYWGQGTSVTVSS
VL: DVVMTQSPFSLPVSLGDQASISCRSSQSLVHSNGNTYLHWYLQKPGQSPKLLIYKVSNRFSGVPDRFSGSGSGTDFTLKISRVEAEDLGVYFCSQSTHVPWTFGGGTKLEIK
B2: Ab14 (antibody, V domains shown)
VH: EVKLVESGGGLVKPGGSLKLSCAASGFTFSSYGMSWVRQTPEKRLEWVATISGGGTNTYYPDSVEGRFTISRDNAKNFLYLQMSSLRSEDTALYYCARHYGSQTMDYWGQGTSVTVSS
VL: DIQMTQSPASLSASVGETVTITCRTSGNIHNYLTWYQQKQGKSPQLLVYNAKTLADGVPSRFSGSGSGTQFSLKINSLQPEDFGSYYCQHFWSIMWTFGGGTKLEIK
B3: Ab13 (antibody, V domains shown)
VH: DVQLQESGPDLVKPSQSLSLTCTVTGYSITSGYSWHWIRQFPGNKLEWMGYIHSSGSTNYNPSLKSRISINRDTSKNQFFLQLNSVTTEDTATYYCAGYDDYFEYWGQGTTLTVSS
VL: DIVMTQSQKFMSTSVGDRVSVTCKASQNVGFNVAWYQQKPGQSPKALIYSASYRYSGVPDRFTGSGSGTDFTLTISNVQSEDLAEYFCQQYNSYPFTFGSGTKLEIK
B4: Ab16 (antibody, V domains shown)
VH: EVKLLESGGGLVQPGGSLKLSCAASGFDFSRYWMSWVRQAPGKGLEWIGEINPDSSTINYTPSLKDKFIISRDNAKNTLYLQMSKVRSEDTALYYCARPGFGNYIYAMDYWGQGTSVTVSS
VL: DIQMTQTTSSLSASLGDRVTINCRASQDISNFLNWYQQKPDGTVKLLIYYTSRLYLGVPSRFSGSGSGTDYSLTISNLEQEDIATYFCQQGNTLPPTFGGGTKLEIK
B5: Ab2 (antibody, V domains shown)
VH: QVQLQQPGAELVKPGASVKLSCKASGYTFTSYWMHWVKQRPGQGLEWIGMIHPDSGTTNYNEKFRSKATLTVDKSSSTAYMQLSSLTSEDSAVYYCAVYYGSTYWYFDVWGTGTTVTVSS
VL: DVVMTQTPLSLPVSLGDQAYISCRSSQSLVHINGNTYLHWYRQKPGQSPKLLIYKVSNRFSGVPDRFSGSGSGTDFTLKISRVEAEDLGVYFCSQSTHFPFTFGSGTKLEIK
B6: Ab17 (antibody, V domains shown)
VH: EVKLVESGGGLVQPGGSLKLSCAASGFTFSSYIMSWVRQTPEKRLEWVASIVSSNITYYPDSMKGRFTISRDNARNILYLQMSSLKSEDTAMYYCARSGTRAWFAYWGQGTLVTVSA
VL: DIVLTQSPASLAVSLGQRATISCRASKSVSTSAYSYMHWYQQKPGQPPKLLIYLASNLESGVPARFSGSGSGTDFTLNIHPVEEEDAATYYCQHSRELPYTFGGGTKLEIK
B7: huAb18v2-CZ (conjugate)
VH: EVQLVQSGAEVKKPGSSVKVSCKASGYSFTSYTIHWVRQAPGQGLEWMGYINPNSRNTDYAQKFQGRVTLTADKSTSTAYMELSSLRSEDTAVYYCARYSGSTPYWYFDVWGQGTTVTVSS
VL: DIQLTQSPSFLSASVGDRVTITCRASSSVSYMNWYQQKPGKAPKLLIYATSNLASGVPSRFSGSGSGTEFTLTISSLQPEDFATYYCQQWSSNPLTFGQGTKLEIK
B8: huAb18v5-CZ (conjugate)
VH: EVQLVQSGAEVKKPGSSVKVSCKASGYSFTSYTIHWVRQAPGQGLEWMGYINPNSRNTDYNQKFKDRVTITADKSTSTAYMELSSLRSEDTAVYYCARYSGSTPYWYFDVWGQGTTVTVSS
VL: EIVLTQSPDFQSVTPKEKVTITCRASSSVSYMNWYQQKPDQSPKLLIKATSNLASGVPSRFSGSGSGTDFTLTINSLEAEDAATYYCQQWSSNPLTFGQGTKLEIK
B9: huAb18v8-CZ (conjugate)
VH: EVQLVQSGAEVKKPGSSVKVSCKASGYSFTSYTIHWVRQAPGQGLEWIGYINPNSRNTDYNQKFKDRTTLTADRSTSTAYMELSSLRSEDTAVYYCARYSGSTPYWYFDVWGQGTTVTVSS
VL: DIQLTQSPSFLSASVGDRVTITCRASSSVSYMNWYQQKPGKAPKPWIYATSNLASGVPSRFSVSGSGTEHTLTISSLQPEDFATYYCQQWSSNPLTFGQGTKLEIK
B10: huAb18v10-CZ (conjugate)
VH: EVQLVQSGAEVKKPGSSVKVSCKASGYSFTSYTIHWVRQAPGQGLEWMGYINPNSRNTDYAQKFQGRVTLTADKSTSTAYMELSSLRSEDTAVYYCARYSGSTPYWYFDVWGQGTTVTVSS
VL: DIQLTQSPSFLSASVGDRVTITCRASSSVSYMNWYQQKPGKAPKPWIYATSNLASGVPSRFSVSGSGTEHTLTISSLQPEDFATYYCQQWSSNPLTFGQGTKLEIK
B11: huAb3v3-CZ (conjugate)
VH: EVQLVQSGAEVKKPGSSVKVSCKASGYTFSSYWMHWVRQAPGQGLEWIGLIHPDSGSTNYNEMFKNRATLTVDRSTSTAYVELSSLRSEDTAVYFCAGGGRLYFDYWGQGTTVTVSS
VL: DVVMTQSPLSLPVTPGEPASISCRSSQSLVHSNGDTYLRWYLQKPGQSPQLLIYKVSNRFSGVPDRFSGSGSGTDFTLKISRVEAEDVGVYFCSQSTHVPYTFGGGTKVEIK
B12: huAb3v5-CZ (conjugate)
VH: EVQLVQSGAEVKKPGSSVKVSCKASGYTFSSYWMHWVRQAPGQGLEWIGLIHPDSGSTNYNEMFKNRATLTVDRSTSTAYMELSSLRSEDTAVYYCAGGGRLYFDYWGQGTTVTVSS
VL: DVVMTQSPLSLPVTPGEPASISCRSSQSLVHSNGDTYLRWYLQKPGQSPQLLIYKVSNRFSGVPDRFSGSGSGTDFTLKISRVEAEDVGVYYCSQSTHVPYTFGGGTKVEIK
B13: huAb3v1-CZ (conjugate)
VH: EVQLVQSGAEVKKPGSSVKVSCKASGYTFSSYWMHWVRQAPGQGLEWMGLIHPDSGSTNYNEMFKNRVTITADKSTSTAYMELSSLRSEDTAVYYCARGGRLYFDYWGQGTTVTVSS
VL: DIVMTQSPLSLPVTPGEPASISCRSSQSLVHSNGDTYLRWYLQKPGQSPQLLIYKVSNRFSGVPDRFSGSGSGTDFTLKISRVEAEDVGVYYCSQSTHVPYTFGGGTKVEIK

Key:
[1] = system: soluble ECD of cyno B7-H3; assay: Biacore T200 SPR binding kinetics, mAb capture; design: species or system cynomolgus monkey; details: Biacore T200, Fc capture of mAb, B7-H3 ECD as analyte, 1:1 binding model
[2] = target: T1, soluble ECD of human B7-H3; assay: Biacore T200 SPR binding kinetics, mAb capture; details: Biacore T200, Fc capture of mAb, B7-H3 ECD as analyte, 1:1 binding model
Experimental: The binding affinity of the purified anti-B7-H3 monoclonal antibodies was determined by surface […]. […] The binding kinetics were derived from SPR measurements using a Biacore T200 instrument and a mAb capture approach (as described in the materials and methods below).
Biacore T200 SPR instruments were used to measure the binding kinetics of human B7-H3 (analyte) binding to various mAbs (ligands). The assay format was Fc-based capture via immobilized anti-mouse (Fc) (Pierce 31170) or immobilized anti-human (Fc) (Pierce 31125). A standard amine coupling protocol was employed to immobilize the capture reagents via primary amines to the carboxy-methyl (CM) dextran surface of CM5 sensorchips (Biacore); capture antibodies were coupled to a level of approximately 5000 RU. For binding kinetic measurements the assay buffer was HBS-EP+ (Biacore): 10 mM Hepes, pH7.4, 150 mM NaCl, 3 mM EDTA, 0.05% polysorbate 20. During the assay, all measurements were referenced against the capture surface alone. Each assay cycle consisted of the following steps: 1) Capture of ligand to approximately 50 RU; 2) Analyte injection over both reference and test surface, 240 μL at 80 μL/min, after which the dissociation was monitored for 900 seconds at 80 μL/min; 3) Regeneration of capture surface with low pH glycine. For kinetic determinations analyte injections were 3-point, 9-fold dilution series of 900 nM, 100 nM and 11.11 nM, buffer only injections were included for secondary referencing. Data were processed and fit to a 1:1 binding model using Biacore T200 Evaluation Software to determine the binding kinetic rate constants, ka (on-rate) and kd (off-rate), and the equilibrium dissociation constant (affinity, KD).

[3] = Aggregation of conjugates by SEC; format: physicochemical
HCC38 cell line = assay: Cell cytotoxicity of ADCs in HCC38 cell line; format: cell-based; details: CZ conjugates
Experimental: The humanization of chAb18 generated 10 variants (described above in Table 9) that retained binding to human and cyno B7-H3 as assessed by FACS (the method of which is described above in Example 6). These variants were further characterized for binding by SPR and were successfully conjugated to the Bcl-xL inhibitor synthon CZ using Method A (described above) and assessed for cell cytotoxicity as described in Example 7. The parental chAb18 from which the variants were derived was also tested as a comparator. All humanized variants had similar binding properties as assessed by biacore, and retained binding activity to cell surface expressed as conjugates with the CZ synthon. The cytotoxicity of all of the variants as CZ synthons were similar to the chAb18 from which they were derived.
Humanized chAb18 variants were conjugated to the CZ synthon and tested for cytotoxicity in HCC38 cell line.

[4] = Table 10, CZ conjugates of Ab18 variants
[5] = Table 14, CZ conjugates of Ab3 variants

Chain of soluble ECD of cyno B7-H3 (as listed by the source): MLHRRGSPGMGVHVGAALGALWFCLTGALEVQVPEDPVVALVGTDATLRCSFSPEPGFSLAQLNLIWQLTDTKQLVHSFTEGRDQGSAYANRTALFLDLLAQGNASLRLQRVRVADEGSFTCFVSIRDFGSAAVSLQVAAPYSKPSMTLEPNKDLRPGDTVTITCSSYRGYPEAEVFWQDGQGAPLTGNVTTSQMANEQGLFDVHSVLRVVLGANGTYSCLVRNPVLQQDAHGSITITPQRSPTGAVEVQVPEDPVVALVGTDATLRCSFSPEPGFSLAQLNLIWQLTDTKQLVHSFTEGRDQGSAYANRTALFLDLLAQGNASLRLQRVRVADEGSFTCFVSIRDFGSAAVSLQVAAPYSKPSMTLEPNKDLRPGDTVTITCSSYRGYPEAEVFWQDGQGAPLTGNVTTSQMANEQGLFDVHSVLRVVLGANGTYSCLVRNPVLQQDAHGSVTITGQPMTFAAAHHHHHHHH

Molecule | cynoB7-H3 ka [1] | cynoB7-H3 kd [1] | huB7-H3 ka [2] | huB7-H3 kd [2] | % agg by SEC [3, 4] | further results
B1 | 200000 M⁻¹ s⁻¹ | 0.0042 s⁻¹ | 41000 M⁻¹ s⁻¹ | 0.00019 s⁻¹ |  | 
B2 | 690000 M⁻¹ s⁻¹ | 0.003 s⁻¹ | 110000 M⁻¹ s⁻¹ | 0.0014 s⁻¹ |  | 
B3 | 440000 M⁻¹ s⁻¹ | 0.0037 s⁻¹ | 330000 M⁻¹ s⁻¹ | 0.0058 s⁻¹ |  | 
B4 | 750000 M⁻¹ s⁻¹ | 0.0056 s⁻¹ | 140000 M⁻¹ s⁻¹ | 0.0032 s⁻¹ |  | 
B5 | 230000 M⁻¹ s⁻¹ | 0.011 s⁻¹ | 120000 M⁻¹ s⁻¹ | 0.0029 s⁻¹ |  | 
B6 | 510000 M⁻¹ s⁻¹ | 1e-05 s⁻¹ | 540000 M⁻¹ s⁻¹ | 1.9e-05 s⁻¹ |  | 
B7 |  |  |  |  | 3.3% | 
B8 |  |  |  |  | 4.2% | IC50 (HCC38 cell line; Table 10): 0.12 nM
B9 |  |  |  |  | 3.5% | IC50 (HCC38 cell line; Table 10): 1.3 nM
B10 |  |  |  |  | 3.2% | 
B11 |  |  |  |  |  | % agg by SEC [3, 5]: 2.5%; IC50 (HCC38 cell line; Table 14): 9.22 nM
B12 |  |  |  |  |  | % agg by SEC [3, 5]: 5.9%; IC50 (HCC38 cell line; Table 14): 0.17 nM
B13 |  |  |  |  |  | % agg by SEC [3, 5]: 3.3%; IC50 (HCC38 cell line; Table 14): 0.53 nM
